# Experimental data taken from PMC6491591 (2019).
# B1: Gonadotropin Regulated Testicular Helicase (GRTH/DDX25), wild type, V5-His tagged [human] / Protein Kinase A catalytic subunit alpha (PKA-Cα), overexpressed [not stated] (parent complex)
# chain 1: MASLLWGGDAGAAESERLNSHFSNLSQPRKNLWGIKSTAVRNIDGSINNINEDDEEDVVDLAANSLLNKLIHQSLVESSHRVEVLQKDPSSPLYSVKTFEELRLKEELLKGIYAMGFNRPSKIQEMALPMMLAHPPQNLIAQSQSGTGKTAAFVLAMLSRVNALELFPQCLCLAPTYELALQTGRVVEQMGKFCVDVQVMYAIRGNRIPRGTDITKQIIIGTPGTVLDWCFKLKLIDLTKIRVFVLDEADVMIDTQGFSDHSIRIQRALPSECQMLLFSATFEDSVWHFAERIIPDPNVIKLRKEELTLNNIRQYYVLCEHRKDKYQALCNIYGSITIGQAIIFCQTRRNAKWLTVEMIQDGHQVSLLSGELTVEQRASIIQRFRDGKEKVLITTNVCARGIDVKQVTIVVNFDLPVKQGEEPDYETYLHRIGRTGRFGKKGLAFNMIEVDELPSLMKIQDHFNSSIKQLNAEDMDEIEKIDY
# chain 2: not shown
# Variants of: B1
# Test: co-immunoprecipitation (IP: V5 antibody), western blot band intensity quantified with ImageJ; COS-1 cells co-transfected with GRTH-V5 and PKA-Cα; read off a plot
row,response [Arbitrary units],Variant
1,~1.2,chain 1 E165A
2,~1.3,chain 1 T239A
3,~1,"chain 1 E165A, chain 1 K240A"

# Variants of: B1
# Test: co-immunoprecipitation (IP: PKA-Cα antibody), western blot band intensity quantified with ImageJ; COS-1 cells co-transfected with GRTH-V5 and PKA-Cα; read off a plot
row,response [Arbitrary units],Variant
1,~1.2,chain 1 E165A
2,~1.2,chain 1 T239A
3,~1.2,"chain 1 E165A, chain 1 K240A"
